{"source": "paper PMC8596624", "biological_target": "UKPV, spike on pseudotyped lentivirus, Alpha (SARS-CoV-2 (B.1.1.7, Alpha)) (UniProt P0DTC2)", "test": "dot blot"}
{"sequence": "TTCCGGTTAATTTATGCTCTACCCGTCCACCTACCGGAATTTTTTTTTTTTTTTTTTTTTTTTTTTTTTACGGGTTTGGCGTCGGGCCTGGCGGGGGGATAGTGCGGT [DSA1N5 (T30 linker)]", "values": [{"measurement": "Kd", "value": 2.3, "unit": "pM"}]}
